Test results taken from the supplement of paper PMC11908140.

B1: library; numbered along this chain (parent)
chain: MRKPRAAVGSGHRKQAASQEGRQKHAKNNSQAKPSACDGLARQPEEVVLQASVSSYHLFRDVAEVTAFRGSLLSWYDQEKRDLPWRRRAEDEMDLDRRAYAVWVSEVMLQQTQVATVINYYTGWMQKWPTLQDLASASLEEVNQLWAGLGYYSRGRRLQEGARKVVEELGGHMPRTAETLQQLLPGVGRYTAGAIASIAFGQATGVVDGNVARVLCRVRAIGADPSSTLVSQQLWGLAQQLVDPARPGDFNQAAMELGATVCTPQRPLCSQCPVESLCRARQRVEQEQLLASGSLSGSPDVEECAPNTGQCHLCLPPSEPWDQTLGVVNFPRKASRKPPREESSATCVLEQPGALGAQILLVQRPNSGLLAGLWEFPSVTWEPSEQLQRKALLQELQRWAGPLPATHLRHLGEVVHTFSHIKLTYQVYGLALEGQTPVTTVPPGARWLTQEEFHTAAVSTAMKKVFRVYQGQQPGTCMGSKRSQVSSPCSRKKPRMGQQVLDNFFRSHISTDAHSLNSAAQ

Variants of: B1
Experiment: 8OG:A repair function score (normalized; synonymous = 0, nonsense = -1) (normalized log-likelihood score); higher = more repair activity (WT-like)
Details: with 8OG:A DNA repair reporter (GFP) in HEK-293 MUTYH KO cells
Method: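 Saturation mutagenesis (NNN codon scan) of the MUTYH cDNA (521-aa nuclear isoform NM_001048174.1 / NP_001041639), stably expressed under doxycycline induction in HEK-293 MUTYH knockout cells. Cells were co-transfected with an 8OG:A-bearing GFP repair reporter plus mCherry and sorted 72 h later into GFP+ and GFP− bins, three replicates per tile. The Rosace log2 enrichment (GFP+ vs GFP−) was converted per tile to a normalized function score with synonymous variants centered at 0 and nonsense variants (codons 1-471) at -1; low-abundance variants were removed.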

8OG:A repair function score of substitutions, site by site:
R97: W -0.346; M -0.0359; D 0.00527; T -0.00706; I 0.00215; N 0.00607; E 0.00633; C 0.00684; V 0.00683; K -0.0457; H -0.211; G -0.0171; S -0.0417; F -0.0465; P -1.03; Y -0.0378; Q 0.00692; L -0.0375
R98: S -0.2; Q -0.236; G -0.574; D -0.438; C -0.578; M -0.316; F -0.114; N -0.122; Y -0.0815; P -0.714; V -0.16; T -0.164; A -0.175; W -0.0663; L -0.107; E -0.275; K -0.0169; H -0.232; I -0.145
Y100: M -1.24; I -1.67; L -1.29; F -0.679; C -1.66; G -1.64; R -1.63; V -1.41; D -1.79; T -1.56; E -1.42; Q -1.23; N -1.17; S -1.56; A -1.95; H -1.01; P -2.33; K -1.96
S105: N -0.802; D -0.841; I -0.549; A -0.0215; V -0.566; H -0.786; M -0.981; R -0.765; G -0.13; F -1.43; C -0.577; E -0.676; P -0.822; T -0.804; Q -0.69; K -1.25; L -0.798
W103: R -1.22; G -0.73; F -0.399; H -0.97; N -1.2; V -0.986; Y -0.166; M -0.283; S -1.14; Q -0.686; I -1.17; E -1.13; T -0.833; D -1.19; K -1.37; L -0.377; C -0.655; A -0.808; P -1.09
V102: C -0.092; W -1.13; P -1.21; F -0.714; S -0.376; T -0.0943; Q -0.275; A -0.644; I -0.00401; M -0.352; L -0.259; N -1.28; G -1.36; K -1.71; Y -1.01; H -2.8; R -1.41; D -0.89; E -1.11
A99: H -1.07; C -0.408; M -0.378; L -0.788; W -1.08; R -1.8; D -3; S -0.124; Q -2.46; K -1.18; V -0.708; F -1.14; P -0.584; E -1.34; T -0.459; G -0.0185; I -0.617; Y -0.837; N -1.45
A101: L -0.0936; N -0.0446; Y -0.0479; F -0.00851; W -0.762; Q -1.09; H -0.0529; V -0.0177; I -0.0179; T -0.047; P -0.398; C -0.00146; G -0.024; E -0.00955; M -0.0323; D -0.0136; S 0.00626; R -0.0207; K -0.0477
V104: P -1.01; E -0.936; K -0.731; A -0.365; Q -1.17; S -0.759; M -0.192; C -0.133; L -0.583; G -0.976; I -0.19; N -1.04; D -1.33; T -0.472; R -1.11; Y -1.27; H -1.31; W -0.707; F -1.1
